Assay [1] deals with chimeric gp120 core polypeptide variant L7-043CDC. The assay can be described thus: SPR (Biacore 2000), mAb captured on anti-human gamma chain antibody, gp120 core injected. (In general: Surface plasmon resonance follows binding to a sensor surface in real time, without labels.)
For assay [2], the target named is recombinant WT HIV-1 JRCSF gp120 core polypeptide (HIV-1 subtype B, strain JRCSF) (UniProt P20871). As to the kind of experiment: SPR (Biacore 2000), mAb captured on anti-human gamma chain antibody, gp120 injected.
Assay [3] addresses recombinant WT HIV-1 JRCSF gp120 full-length polypeptide (HIV-1 subtype B, strain JRCSF) (UniProt P20871). Described as above.
The target in assay [4] is chimeric gp120 core polypeptide variant L7-043. As to the kind of experiment: SPR (Biacore 2000), KA = ka/kd from a single-site fit.
The target in assay [5] is recombinant WT HIV-1 JRCSF gp120 core polypeptide (HIV-1 subtype B, strain JRCSF) (UniProt P20871). The assay is described as above.
For assay [6], the target named is chimeric gp120 core polypeptide variant L7-043CDC. The assay is described as above.
The target in assay [7] is recombinant WT HIV-1 JRCSF gp120 full-length polypeptide (HIV-1 subtype B, strain JRCSF) (UniProt P20871). The description is as above.
Assay [8] addresses HIV-1 93TH305 gp160 envelope protein on pseudovirus (HIV-1 subtype E, strain 93TH305). As to the kind of experiment: cell-based or functional assay.
Assay [9] addresses HIV-1 92RW020 gp160 envelope protein on pseudovirus (HIV-1 subtype A, strain 92RW020). As to the kind of experiment: cell-based or functional assay.
Assay [10] concerns the target HIV-1 QH0692 gp160 envelope protein on pseudovirus (HIV-1 subtype B, strain QH0692). As to the kind of experiment: cell-based or functional assay.
For assay [11], the target named is HIV-1 6535 gp160 envelope protein on pseudovirus (HIV-1 subtype B, strain 6535). As to the kind of experiment: cell-based or functional assay.
Assay [12] addresses HIV-1 JRCSF gp160 envelope protein on pseudovirus (HIV-1 subtype B, strain JRCSF) (UniProt P20871). The assay can be described thus: cell-based or functional assay.
In assay [13] the target is HIV-1 VLGCG4 gp160 envelope protein on pseudovirus (HIV-1 subtype G, strain VLGCG4). As to the kind of experiment: cell-based or functional assay.
For assay [14], the target named is HIV-1 NL4-3 gp160 envelope protein on pseudovirus (HIV-1 subtype B, strain NL4-3). The assay can be described thus: cell-based or functional assay.
Assay [15] concerns the target HIV-1 93MW960 gp160 envelope protein on pseudovirus (HIV-1 subtype C, strain 93MW960). As to the kind of experiment: cell-based or functional assay.
Assay [16] addresses HIV-1 1196 gp160 envelope protein on pseudovirus (HIV-1 subtype B, strain 1196). As to the kind of experiment: cell-based or functional assay.
Assay [17] concerns the target HIV-1 SF162 gp160 envelope protein on pseudovirus (HIV-1 subtype B, strain SF162). The assay can be described thus: cell-based or functional assay.
For assay [18], the target named is HIV-1 92HT594 gp160 envelope protein on pseudovirus (HIV-1 subtype B, strain 92HT594). As to the kind of experiment: cell-based or functional assay.
Assay [19] deals with HIV-1 93BR020 gp160 envelope protein on pseudovirus (HIV-1 subtype F, strain 93BR020). As to the kind of experiment: cell-based or functional assay.
The target in assay [20] is HIV-1 BaL gp160 envelope protein on pseudovirus (HIV-1 subtype B, strain BaL). The assay can be described thus: cell-based or functional assay.
For assay [21], the target named is HIV-1 93BR029 gp160 envelope protein on pseudovirus (HIV-1 subtype F, strain 93BR029). As to the kind of experiment: cell-based or functional assay.
Assay [22] addresses amphotropic MLV envelope protein on pseudovirus (amphotropic murine leukemia virus). As to the kind of experiment: cell-based or functional assay.
Assay [23] deals with HIV-1 QZ4589 gp160 envelope protein on pseudovirus (HIV-1 subtype B, strain QZ4589). As to the kind of experiment: cell-based or functional assay.
The target in assay [24] is chimeric gp120 core polypeptide variant L7-043. As to the kind of experiment: SPR (Biacore 2000), KA relative to the JR-CSF gp120 core row (= 1).
Assay [25] concerns the target recombinant WT HIV-1 JRCSF gp120 core polypeptide (HIV-1 subtype B, strain JRCSF) (UniProt P20871). As to the kind of experiment: SPR (Biacore 2000), KA = ka/kd from a single-site fit; * best curve fit, dissociation slower than the limit of detection of the instrument.
For assay [26], the target named is recombinant WT HIV-1 JRCSF gp120 full-length polypeptide (HIV-1 subtype B, strain JRCSF) (UniProt P20871). The assay is described as above.

Substance human monoclonal antibody IgG1b12 had a fold increase in b12 affinity against JRCSF gp120 core polypeptide in [1] greater than 7.5 fold. Also, the Ka is greater than 1e+07 M⁻¹ in assay [2]; greater than 1e+07 M⁻¹ in assay [3]; 3.8e+08 M⁻¹ in assay [4]; 3.43e+07 M⁻¹ in assay [5]; 2.58e+08 M⁻¹ in assay [6]; 3.62e+07 M⁻¹ in assay [7]. In addition, the IC50 neutralization titer of pseudovirus (luciferase entry assay) in assay [8] is 0.71 µg/mL; in assay [9], 1.67 µg/mL; in [10], 0.1 µg/mL; in assay [11], 0.64 µg/mL; in [12], 0.06 µg/mL; in [13], 0.04 µg/mL. Moreover, the IC50 neutralization titer of pseudovirus (luciferase entry assay) in assay [14] was 0.01 µg/mL; in [15], 0.06 µg/mL; in [16] it was 0.48 µg/mL; in assay [17], 0.01 µg/mL; in assay [18], 0.02 µg/mL; in assay [19] it was 2.08 µg/mL. Further, the IC50 neutralization titer of pseudovirus (luciferase entry assay) is 0.01 µg/mL in [20], 1.67 µg/mL in [21], greater than 2.5 µg/mL in assay [22] and 0.03 µg/mL in assay [23]. In addition, the Fold Increase in assay [24] came out at 11.
With human monoclonal antibody IgG1b6, the Ka in [25] is 6.32e+12 M⁻¹; in [26], 4.08e+11 M⁻¹.

The values are drawn from US20110262474A1.
